System: target antigen-expressing cell line
Test: Jurkat NFAT-GFP assay, coculture with target cell lines expressing the respective target antigen (summary Table 10A)
Type: cell-based, human
Design: key: The signs +/−, +, 2+ etc. after the name of the cell lines indicate the relative degree of positivity on the Jurkat-NFAT-GFP assay as measured by the % GFP positive cells; +: relative degree of positivity on the Jurkat-NFAT-GFP assay as measured by the % GFP positive cells; 2+: relative degree of positivity on the Jurkat-NFAT-GFP assay as measured by the % GFP positive cells
Settings: relative % GFP positive cells; for NFAT-GFP ASSAY Positive Cell lines: NALM6: SIR-expressing Jurkat-NFAT-GFP cells cocultured with NALM6; for NFAT-GFP ASSAY Positive Cell lines: RAJI: SIR-expressing Jurkat-NFAT-GFP cells cocultured with RAJI
In short: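 Jurkat cells carrying an NFAT-driven GFP reporter and lentivirally expressing a SIR were cocultured with antigen-bearing target cells (E:T ~1:2) for about 4–18 h. GFP induction read by flow cytometry as % GFP+ cells, scored positive and graded (+/−, +, 2+) against parental Jurkat-NFAT-GFP cells.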

B1: 030217-H02 (protein)
chain: MALPVTALLLPLALLLHAARPDEIVLTQSPATLSLSPGERATLSCSASSSVSYMHWYQQKPGQAPRLLIYDTSKLASGIPARFSGSGSGTDFTLTISSLEPEDVAVYYCFQGSVYPFTFGQGTKLEIKRGGGGSGGGGSGGGGSQVQLQESGPGLVKPSQTLSLTCTVSGGSISTSGMGVGWIRQHPGKGLEWIGHIWWDDDKRYNPALKSRVTISVDTSKNQFSLKLSSVTAADTAVYYCARMELWSYYFDYWGQGTLVTVSSLEGKPIPNPLLGLDSTGSGEDLKNVFPPEVAVFEPSKAEIAHTQKATLVCLATGFYPDHVELSWWVNGKEVHSGVCTDPQPLKEQPALNDSRYCLSSRLRVSATFWQNPRNHFRCQVQFYGLSENDEWTQDRAKPVTQIVSAEAWGRADCGITSASYHQGVLSATILYEILLGKATLYAVLVSALVLMAMVKRKDSRGRAKRSGSGATNFSLLKQAGDVEENPGPTSMALPVTALLLPLALLLHAARPDIQMTQSTSSLSASLGDRVTISCSASQGINNYLNWYQQKPDGTVELLIYYTSTLQSGVPSRFSGSGSGTDYSLTISNLEPEDIGTYYCQQYSKLPRTFGGGTKLEIKGGGGSGGGGSGGGGSQVQLQQSGSELMMPGASVKISCKATGYTFSNYWIEWVKQRPGHGLEWIGEILPGTGRTIYNEKFKGKATFTADISSNTVQMQLSSLTSEDSAVYYCARRDYYGNFYYAMDYWGQGTSVTVSSTREQKLISEEDGSGIQNPDPAVYQLRDSKSSDKSVCLFTDFDSQTNVSQSKDSDVYITDKCVLDMRSMDFKSNSAVAWSNKSDFACANAFNNSIIPEDTFFPSSDVPCDVKLVEKSFETDTNLNFQNLSVIGFRILLLKVAGFNLLMTLRLWSSRAKRSGSGVKQTLNFDLLKLAGDVESNPGPSRGHMTEYKPTVRLATRDDVPRAVRTLAAAFADYPATRHTVDPDRHIERVTELQELFLTRVGLDIGKVWVADDGAAVAVWTTPESVEAGAVFAEIGPRMAELSGSRLAAQQQMEGLLAPHRPKEPAWFLATVGVSPDHQGKGLGSAVVLPGVEAAERAGVPAFLETSAPRNLPFYERLGFTVTADVEVPEGPRTWCMTRKPGA
NFAT-GFP ASSAY Positive Cell lines: NALM6: (+) | NFAT-GFP ASSAY Positive Cell lines: RAJI: RAJI (2+), NALM6

B2: 030217-E05 (protein)
chain: MALPVTALLLPLALLLHAARPDEIVLTQSPATLSLSPGERATLSCSASSSVSYMHWYQQKPGQAPRLLIYDTSKLASGIPARFSGSGSGTDFTLTISSLEPEDVAVYYCFQGSVYPFTFGQGTKLEIKRGGGGSGGGGSGGGGSQVQLQESGPGLVKPSQTLSLTCTVSGGSISTSGMGVGWIRQHPGKGLEWIGHIWWDDDKRYNPALKSRVTISVDTSKNQFSLKLSSVTAADTAVYYCARMELWSYYFDYWGQGTLVTVSSLEGKPIPNPLLGLDSTGSGEDLKNVFPPEVAVFEPSKAEIAHTQKATLVCLATGFYPDHVELSWWVNGKEVHSGVCTDPQPLKEQPALNDSRYCLSSRLRVSATFWQNPRNHFRCQVQFYGLSENDEWTQDRAKPVTQIVSAEAWGRADCGITSASYHQGVLSATILYEILLGKATLYAVLVSALVLMAMVKRKDSRGRAKRSGSGATNFSLLKQAGDVEENPGPTSTMALPVTALLLPLALLLHAARPDEIVLTQSPGSLAVSPGERVTMSCKSSQSVFFSSSQKNYLAWYQQIPGQSPRLLIYWASTRESGVPDRFTGSGSGTDFTLTISSVQPEDLAIYYCHQYLSSRTFGQGTKLEIKRGGGGSGGGGSGGGGSQVQLQQPGAEVVKPGASVKMSCKASGYTFTSYYIHWIKQTPGQGLEWVGVIYPGNDDISYNQKFQGKATLTADKSSTTAYMQLSSLTSEDSAVYYCAREVRLRYFDVWGQVTTVTVSSTREQKLISEEDGSGIQNPDPAVYQLRDSKSSDKSVCLFTDFDSQTNVSQSKDSDVYITDKCVLDMRSMDFKSNSAVAWSNKSDFACANAFNNSIIPEDTFFPSSDVPCDVKLVEKSFETDTNLNFQNLSVIGFRILLLKVAGFNLLMTLRLWSSRAKRSGSGVKQTLNFDLLKLAGDVESNPGPSRGHMTEYKPTVRLATRDDVPRAVRTLAAAFADYPATRHTVDPDRHIERVTELQELFLTRVGLDIGKVWVADDGAAVAVWTTPESVEAGAVFAEIGPRMAELSGSRLAAQQQMEGLLAPHRPKEPAWFLATVGVSPDHQGKGLGSAVVLPGVEAAERAGVPAFLETSAPRNLPFYERLGFTVTADVEVPEGPRTWCMTRKPGA
NFAT-GFP ASSAY Positive Cell lines: RAJI: RAJI (+)

B3: 010417-B04 (protein)
chain: MALPVTALLLPLALLLHAARPLEGKPIPNPLLGLDSTGSGEDLKNVFPPEVAVFEPSKAEIAHTQKATLVCLATGFYPDHVELSWWVNGKEVHSGVCTDPQPLKEQPALNDSRYCLSSRLRVSATFWQNPRNHFRCQVQFYGLSENDEWTQDRAKPVTQIVSAEAWGRADCGITSASYHQGVLSATILYEILLGKATLYAVLVSALVLMAMVKRKDSRGRAKRSGSGATNFSLLKQAGDVEENPGPTSTMALPVTALLLPLALLLHAARPDEIVLTQSPATLSLSPGERATLSCSASSSVSYMHWYQQKPGQAPRLLIYDTSKLASGIPARFSGSGSGTDFTLTISSLEPEDVAVYYCFQGSVYPFTFGQGTKLEIKRGGGGSGGGGSGGGGSQVQLQESGPGLVKPSQTLSLTCTVSGGSISTSGMGVGWIRQHPGKGLEWIGHIWWDDDKRYNPALKSRVTISVDTSKNQFSLKLSSVTAADTAVYYCARMELWSYYFDYWGQGTLVTVSSTREAAAKDDIVMTQSPDSLTVSLGERTTINCKSSQSVLDSSKNKNSLAWYQQKPGQPPKLLLSWASTRESGIPDRFSGSGSGTDFTLTIDSLQPEDSATYYCQQSAHFPITFGQGTRLEIKGGGGSGGGGSGGGGSQVQLVQSGAEVKKPGASVKVSCKASGYTFTNYGMNWVKQAPGQGLKWMGWINTYTGEPTYADDFKGRVTMTSDTSTSTAYLELHNLRSDDTAVYYCARWSWSDGYYVYFDYWGQGTTVTVSSTREQKLISEEDGSGIQNPDPAVYQLRDSKSSDKSVCLFTDFDSQTNVSQSKDSDVYITDKCVLDMRSMDFKSNSAVAWSNKSDFACANAFNNSIIPEDTFFPSSDVPCDVKLVEKSFETDTNLNFQNLSVIGFRILLLKVAGFNLLMTLRLWSSRAKRSGSGVKQTLNFDLLKLAGDVESNPGPSRGHMTEYKPTVRLATRDDVPRAVRTLAAAFADYPATRHTVDPDRHIERVTELQELFLTRVGLDIGKVWVADDGAAVAVWTTPESVEAGAVFAEIGPRMAELSGSRLAAQQQMEGLLAPHRPKEPAWFLATVGVSPDHQGKGLGSAVVLPGVEAAERAGVPAFLETSAPRNLPFYERLGFTVTADVEVPEGPRTWCMTRKPGA
NFAT-GFP ASSAY Positive Cell lines: HL60 (SIR-expressing Jurkat-NFAT-GFP cells cocultured with HL60): +/− | NFAT-GFP ASSAY Positive Cell lines: NALM6: + | NFAT-GFP ASSAY Positive Cell lines: RAJI: RAJI (+), NALM6

B4: 030217-G04 (protein)
chain: MALPVTALLLPLALLLHAARPDEIVLTQSPATLSLSPGERATLSCSASSSVSYMHWYQQKPGQAPRLLIYDTSKLASGIPARFSGSGSGTDFTLTISSLEPEDVAVYYCFQGSVYPFTFGQGTKLEIKRGGGGSGGGGSGGGGSQVQLQESGPGLVKPSQTLSLTCTVSGGSISTSGMGVGWIRQHPGKGLEWIGHIWWDDDKRYNPALKSRVTISVDTSKNQFSLKLSSVTAADTAVYYCARMELWSYYFDYWGQGTLVTVSSLEGKPIPNPLLGLDSTGSGEDLKNVFPPEVAVFEPSKAEIAHTQKATLVCLATGFYPDHVELSWWVNGKEVHSGVCTDPQPLKEQPALNDSRYCLSSRLRVSATFWQNPRNHFRCQVQFYGLSENDEWTQDRAKPVTQIVSAEAWGRADCGITSASYHQGVLSATILYEILLGKATLYAVLVSALVLMAMVKRKDSRGRAKRSGSGATNFSLLKQAGDVEENPGPTSMALPVTALLLPLALLLHAARPDDIVMTQSPDSLTVSLGERTTINCKSSQSVLDSSKNKNSLAWYQQKPGQPPKLLLSWASTRESGIPDRFSGSGSGTDFTLTIDSLQPEDSATYYCQQSAHFPITFGQGTRLEIKGGGGSGGGGSGGGGSQVQLVQSGAEVKKPGASVKVSCKASGYTFTNYGMNWVKQAPGQGLKWMGWINTYTGEPTYADDFKGRVTMTSDTSTSTAYLELHNLRSDDTAVYYCARWSWSDGYYVYFDYWGQGTTVTVSSTREQKLISEEDGSGIQNPDPAVYQLRDSKSSDKSVCLFTDFDSQTNVSQSKDSDVYITDKCVLDMRSMDFKSNSAVAWSNKSDFACANAFNNSIIPEDTFFPSSDVPCDVKLVEKSFETDTNLNFQNLSVIGFRILLLKVAGFNLLMTLRLWSSRAKRSGSGVKQTLNFDLLKLAGDVESNPGPSRGHMTEYKPTVRLATRDDVPRAVRTLAAAFADYPATRHTVDPDRHIERVTELQELFLTRVGLDIGKVWVADDGAAVAVWTTPESVEAGAVFAEIGPRMAELSGSRLAAQQQMEGLLAPHRPKEPAWFLATVGVSPDHQGKGLGSAVVLPGVEAAERAGVPAFLETSAPRNLPFYERLGFTVTADVEVPEGPRTWCMTRKPGA
NFAT-GFP ASSAY Positive Cell lines: NALM6: RAJI (+), NALM6 (+) | NFAT-GFP ASSAY Positive Cell lines: RAJI: RAJI (+), NALM6 (+)

— patent US12269859B2, “Synthetic immune receptors and methods of use thereof” (Angeles Therapeutics, Inc., priority 2016, dated 2025)
